{"source": "paper PMC10087246", "target": "SCO3201 (amino acids 21–216), TetR/AcrR-like regulator from Streptomyces coelicolor (Streptomyces coelicolor) (UniProt Q9KYU4)", "assay": "SAXS"}
{"substance": "SCO3201 (amino acids 21–216), TetR/AcrR-like regulator from Streptomyces coelicolor (from UniProt Q9KYU4 21-216) (domain or fragment)", "values": [{"measurement": "stoichiometry N", "value": 2}]}
